Results as given in the supplement of paper PMC10266784.

B1: library; numbered along this chain (parent)
chain: MAAAAAAAAEQQSSNGPVKKSMREKAVERRSVNKEHNSNFKAGYIPIDEDRLHKTGLRGRKGNLAICVIILLFILAVINLIITLVIWAVIRIGPNGCDSMEFHESGLLRFKQVSDMGVIHPLYKSTVGGRRNENLVITGNNQPIVFQQGTTKLSVENNKTSITSDIGMQFFDPRTQNILFSTDYETHEFHLPSGVKSLNVQKASTERITSNATSDLNIKVDGRAIVRGNEGVFIMGKTIEFHMGGNMELKAENSIILNGSVMVSTTRLPSSSSGDQLGSGDWVRYKLCMCADGTLFKVQVTSQNMGCQISDNPCGNTH

Variants of: B1
Test: SGCB cell-surface expression functional score (HA stain, bin4 vs bin1, normalised to synonymous) (log10 ratio); higher = more cell-surface SGCB (functional)
How it was run: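 Using lentivirus at MOI <0.1, HA-tagged, YFP-fused human beta-sarcoglycan codon-saturation libraries were put into HEK293 cells with stable alpha-, gamma- and delta-sarcoglycan expression, in duplicate transductions. YFP-positive cells were collected by sorting 72 hours later, grown 5–7 days, stained on ice with Alexa Fluor 647 anti-HA, fixed, sorted into four 5% intensity bins and amplicon-sequenced. The functional score takes the median, across codons and transductions, of the log ratio of highest-bin to lowest-bin variant frequency. Within each section, synonymous variants were scaled to mean 0, SD 0.5.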

Point of comparison: MAAAAAAAAEQQSSNGPVKKSMREKAVERRSVNKEHNSNFKAGYIPIDEDRLHKTGLRGRKGNLAICVIILLFILAVINLIITLVIWAVIRIGPNGCDSMEFHESGLLRFKQVSDMGVIHPLYKSTVGGRRNENLVITGNNQPIVFQQGTTKLSVENNKTSITSDIGMQFFDPRTQNILFSTDYETHEFHLPSGVKSLNVQKASTERITSNATSDLNIKVDGRAIVRGNEGVFIMGKTIEFHMGGNMELKAENSIILNGTVMVSTTRLPSSSSGDQLGSGDWVRYKLCMCADGTLFKVQVTSQNMGCQISDNPCGNTH [S260T], “SGCB cell-surface expression functional score (log10)” value 0.41. Against it:
- MAAAAAAAAEQQSSNGPVKKSMREKAVERRSVNKEHNSNFKAGYIPIDEDRLHKTGLRGRKGNLAICVIILLFILAVINLIITLVIWAVIRIGPNGCDSMEFHESGLLRFKQVSDMGVIHPLYKSTVGGRRNENLVITGNNQPIVFQQGTTKLSVENNKTSITSDIGMQFFDPRTQNILFSTDYETHEFHLPSGVKSLNVQKASTERITSNATSDLNIKVDGRAIVRGNEGVFIMGKTIEFHMGGNMELKAENSIILNGHVMVSTTRLPSSSSGDQLGSGDWVRYKLCMCADGTLFKVQVTSQNMGCQISDNPCGNTH [S260H] — higher, 0.83
- MAAAAAAAAEQQSSNGPVKKSMREKAVERRSVNKEHNSNFKAGYIPIDEDRLHKTGLRGRKGNLAICVIILLFILAVINLIITLVIWAVIRIGPNGCDSMEFHESGLLRFKQVSDMGVIHPLYKSTVGGRRNENLVITGNNQPIVFQQGTTKLSVENNKTSITSDIGMQFFDPRTQNILFSTDYETHEFHLPSGVKSLNVQKASTERITSNATSDLNIKVDGRAIVRGNEGVFIMGKTIEFHMGGNMELKAENSIILNGMVMVSTTRLPSSSSGDQLGSGDWVRYKLCMCADGTLFKVQVTSQNMGCQISDNPCGNTH [S260M] — higher, 0.98
- MAAAAAAAAEQQSSNGPVKKSMREKAVERRSVNKEHNSNFKAGYIPIDEDRLHKTGLRGRKGNLAICVIILLFILAVINLIITLVIWAVIRIGPNGCDSMEFHESGLLRFKQVSDMGVIHPLYKSTVGGRRNENLVITGNNQPIVFQQGTTKLSVENNKTSITSDIGMQFFDPRTQNILFSTDYETHEFHLPSGVKSLNVQKASTERITSNATSDLNIKVDGRAIVRGNEGVFIMGKTIEFHMGGNMELKAENSIILNGRVMVSTTRLPSSSSGDQLGSGDWVRYKLCMCADGTLFKVQVTSQNMGCQISDNPCGNTH [S260R] — higher, 0.87
- MAAAAAAAAEQQSSNGPVKKSMREKAVERRSVNKEHNSNFKAGYIPIDEDRLHKTGLRGRKGNLAICVIILLFILAVINLIITLVIWAVIRIGPNGCDSMEFHESGLLRFKQVSDMGVIHPLYKSTVGGRRNENLVITGNNQPIVFQQGTTKLSVENNKTSITSDIGMQFFDPRTQNILFSTDYETHEFHLPSGVKSLNVQKASTERITSNATSDLNIKVDGRAIVRGNEGVFIMGKTIEFHMGGNMELKAENSIILNGCVMVSTTRLPSSSSGDQLGSGDWVRYKLCMCADGTLFKVQVTSQNMGCQISDNPCGNTH [S260C] — within 0.2 log units, 0.5
- MAAAAAAAAEQQSSNGPVKKSMREKAVERRSVNKEHNSNFKAGYIPIDEDRLHKTGLRGRKGNLAICVIILLFILAVINLIITLVIWAVIRIGPNGCDSMEFHESGLLRFKQVSDMGVIHPLYKSTVGGRRNENLVITGNNQPIVFQQGTTKLSVENNKTSITSDIGMQFFDPRTQNILFSTDYETHEFHLPSGVKSLNVQKASTERITSNATSDLNIKVDGRAIVRGNEGVFIMGKTIEFHMGGNMELKAENSIILNGAVMVSTTRLPSSSSGDQLGSGDWVRYKLCMCADGTLFKVQVTSQNMGCQISDNPCGNTH [S260A] — within 0.2 log units, 0.52
- MAAAAAAAAEQQSSNGPVKKSMREKAVERRSVNKEHNSNFKAGYIPIDEDRLHKTGLRGRKGNLAICVIILLFILAVINLIITLVIWAVIRIGPNGCDSMEFHESGLLRFKQVSDMGVIHPLYKSTVGGRRNENLVITGNNQPIVFQQGTTKLSVENNKTSITSDIGMQFFDPRTQNILFSTDYETHEFHLPSGVKSLNVQKASTERITSNATSDLNIKVDGRAIVRGNEGVFIMGKTIEFHMGGNMELKAENSIILNGEVMVSTTRLPSSSSGDQLGSGDWVRYKLCMCADGTLFKVQVTSQNMGCQISDNPCGNTH [S260E] — lower, -0.09
- MAAAAAAAAEQQSSNGPVKKSMREKAVERRSVNKEHNSNFKAGYIPIDEDRLHKTGLRGRKGNLAICVIILLFILAVINLIITLVIWAVIRIGPNGCDSMEFHESGLLRFKQVSDMGVIHPLYKSTVGGRRNENLVITGNNQPIVFQQGTTKLSVENNKTSITSDIGMQFFDPRTQNILFSTDYETHEFHLPSGVKSLNVQKASTERITSNATSDLNIKVDGRAIVRGNEGVFIMGKTIEFHMGGNMELKAENSIILNGWVMVSTTRLPSSSSGDQLGSGDWVRYKLCMCADGTLFKVQVTSQNMGCQISDNPCGNTH [S260W] — higher, 0.61
- MAAAAAAAAEQQSSNGPVKKSMREKAVERRSVNKEHNSNFKAGYIPIDEDRLHKTGLRGRKGNLAICVIILLFILAVINLIITLVIWAVIRIGPNGCDSMEFHESGLLRFKQVSDMGVIHPLYKSTVGGRRNENLVITGNNQPIVFQQGTTKLSVENNKTSITSDIGMQFFDPRTQNILFSTDYETHEFHLPSGVKSLNVQKASTERITSNATSDLNIKVDGRAIVRGNEGVFIMGKTIEFHMGGNMELKAENSIILNGPVMVSTTRLPSSSSGDQLGSGDWVRYKLCMCADGTLFKVQVTSQNMGCQISDNPCGNTH [S260P] — higher, 0.71
- MAAAAAAAAEQQSSNGPVKKSMREKAVERRSVNKEHNSNFKAGYIPIDEDRLHKTGLRGRKGNLAICVIILLFILAVINLIITLVIWAVIRIGPNGCDSMEFHESGLLRFKQVSDMGVIHPLYKSTVGGRRNENLVITGNNQPIVFQQGTTKLSVENNKTSITSDIGMQFFDPRTQNILFSTDYETHEFHLPSGVKSLNVQKASTERITSNATSDLNIKVDGRAIVRGNEGVFIMGKTIEFHMGGNMELKAENSIILNGLVMVSTTRLPSSSSGDQLGSGDWVRYKLCMCADGTLFKVQVTSQNMGCQISDNPCGNTH [S260L] — lower, -0.22
- MAAAAAAAAEQQSSNGPVKKSMREKAVERRSVNKEHNSNFKAGYIPIDEDRLHKTGLRGRKGNLAICVIILLFILAVINLIITLVIWAVIRIGPNGCDSMEFHESGLLRFKQVSDMGVIHPLYKSTVGGRRNENLVITGNNQPIVFQQGTTKLSVENNKTSITSDIGMQFFDPRTQNILFSTDYETHEFHLPSGVKSLNVQKASTERITSNATSDLNIKVDGRAIVRGNEGVFIMGKTIEFHMGGNMELKAENSIILNGNVMVSTTRLPSSSSGDQLGSGDWVRYKLCMCADGTLFKVQVTSQNMGCQISDNPCGNTH [S260N] — within 0.2 log units, 0.25
- MAAAAAAAAEQQSSNGPVKKSMREKAVERRSVNKEHNSNFKAGYIPIDEDRLHKTGLRGRKGNLAICVIILLFILAVINLIITLVIWAVIRIGPNGCDSMEFHESGLLRFKQVSDMGVIHPLYKSTVGGRRNENLVITGNNQPIVFQQGTTKLSVENNKTSITSDIGMQFFDPRTQNILFSTDYETHEFHLPSGVKSLNVQKASTERITSNATSDLNIKVDGRAIVRGNEGVFIMGKTIEFHMGGNMELKAENSIILNGIVMVSTTRLPSSSSGDQLGSGDWVRYKLCMCADGTLFKVQVTSQNMGCQISDNPCGNTH [S260I] — lower, -0.71
- MAAAAAAAAEQQSSNGPVKKSMREKAVERRSVNKEHNSNFKAGYIPIDEDRLHKTGLRGRKGNLAICVIILLFILAVINLIITLVIWAVIRIGPNGCDSMEFHESGLLRFKQVSDMGVIHPLYKSTVGGRRNENLVITGNNQPIVFQQGTTKLSVENNKTSITSDIGMQFFDPRTQNILFSTDYETHEFHLPSGVKSLNVQKASTERITSNATSDLNIKVDGRAIVRGNEGVFIMGKTIEFHMGGNMELKAENSIILNGKVMVSTTRLPSSSSGDQLGSGDWVRYKLCMCADGTLFKVQVTSQNMGCQISDNPCGNTH [S260K] — lower, -0.81
- MAAAAAAAAEQQSSNGPVKKSMREKAVERRSVNKEHNSNFKAGYIPIDEDRLHKTGLRGRKGNLAICVIILLFILAVINLIITLVIWAVIRIGPNGCDSMEFHESGLLRFKQVSDMGVIHPLYKSTVGGRRNENLVITGNNQPIVFQQGTTKLSVENNKTSITSDIGMQFFDPRTQNILFSTDYETHEFHLPSGVKSLNVQKASTERITSNATSDLNIKVDGRAIVRGNEGVFIMGKTIEFHMGGNMELKAENSIILNGYVMVSTTRLPSSSSGDQLGSGDWVRYKLCMCADGTLFKVQVTSQNMGCQISDNPCGNTH [S260Y] — lower, -0.87
- MAAAAAAAAEQQSSNGPVKKSMREKAVERRSVNKEHNSNFKAGYIPIDEDRLHKTGLRGRKGNLAICVIILLFILAVINLIITLVIWAVIRIGPNGCDSMEFHESGLLRFKQVSDMGVIHPLYKSTVGGRRNENLVITGNNQPIVFQQGTTKLSVENNKTSITSDIGMQFFDPRTQNILFSTDYETHEFHLPSGVKSLNVQKASTERITSNATSDLNIKVDGRAIVRGNEGVFIMGKTIEFHMGGNMELKAENSIILNGFVMVSTTRLPSSSSGDQLGSGDWVRYKLCMCADGTLFKVQVTSQNMGCQISDNPCGNTH [S260F] — within 0.2 log units, 0.4
- MAAAAAAAAEQQSSNGPVKKSMREKAVERRSVNKEHNSNFKAGYIPIDEDRLHKTGLRGRKGNLAICVIILLFILAVINLIITLVIWAVIRIGPNGCDSMEFHESGLLRFKQVSDMGVIHPLYKSTVGGRRNENLVITGNNQPIVFQQGTTKLSVENNKTSITSDIGMQFFDPRTQNILFSTDYETHEFHLPSGVKSLNVQKASTERITSNATSDLNIKVDGRAIVRGNEGVFIMGKTIEFHMGGNMELKAENSIILNGQVMVSTTRLPSSSSGDQLGSGDWVRYKLCMCADGTLFKVQVTSQNMGCQISDNPCGNTH [S260Q] — lower, -0.24
- MAAAAAAAAEQQSSNGPVKKSMREKAVERRSVNKEHNSNFKAGYIPIDEDRLHKTGLRGRKGNLAICVIILLFILAVINLIITLVIWAVIRIGPNGCDSMEFHESGLLRFKQVSDMGVIHPLYKSTVGGRRNENLVITGNNQPIVFQQGTTKLSVENNKTSITSDIGMQFFDPRTQNILFSTDYETHEFHLPSGVKSLNVQKASTERITSNATSDLNIKVDGRAIVRGNEGVFIMGKTIEFHMGGNMELKAENSIILNGDVMVSTTRLPSSSSGDQLGSGDWVRYKLCMCADGTLFKVQVTSQNMGCQISDNPCGNTH [S260D] — lower, -0.04
- MAAAAAAAAEQQSSNGPVKKSMREKAVERRSVNKEHNSNFKAGYIPIDEDRLHKTGLRGRKGNLAICVIILLFILAVINLIITLVIWAVIRIGPNGCDSMEFHESGLLRFKQVSDMGVIHPLYKSTVGGRRNENLVITGNNQPIVFQQGTTKLSVENNKTSITSDIGMQFFDPRTQNILFSTDYETHEFHLPSGVKSLNVQKASTERITSNATSDLNIKVDGRAIVRGNEGVFIMGKTIEFHMGGNMELKAENSIILNGVVMVSTTRLPSSSSGDQLGSGDWVRYKLCMCADGTLFKVQVTSQNMGCQISDNPCGNTH [S260V] — lower, 0.01
- MAAAAAAAAEQQSSNGPVKKSMREKAVERRSVNKEHNSNFKAGYIPIDEDRLHKTGLRGRKGNLAICVIILLFILAVINLIITLVIWAVIRIGPNGCDSMEFHESGLLRFKQVSDMGVIHPLYKSTVGGRRNENLVITGNNQPIVFQQGTTKLSVENNKTSITSDIGMQFFDPRTQNILFSTDYETHEFHLPSGVKSLNVQKASTERITSNATSDLNIKVDGRAIVRGNEGVFIMGKTIEFHMGGNMELKAENSIILNGGVMVSTTRLPSSSSGDQLGSGDWVRYKLCMCADGTLFKVQVTSQNMGCQISDNPCGNTH [S260G] — higher, 0.77
